Laboratory results published in patent US20250206841A1 (ADEPT THERAPEUTICS, published 2025).
Substitutions are numbered along the chain they refer to.

T1: human Trop-2 expressed on cell surface (human, UniProt P09758 27-323)
T1 construct: whole, on cells; also called cell surface Trop-2
T1 sequence (looked up): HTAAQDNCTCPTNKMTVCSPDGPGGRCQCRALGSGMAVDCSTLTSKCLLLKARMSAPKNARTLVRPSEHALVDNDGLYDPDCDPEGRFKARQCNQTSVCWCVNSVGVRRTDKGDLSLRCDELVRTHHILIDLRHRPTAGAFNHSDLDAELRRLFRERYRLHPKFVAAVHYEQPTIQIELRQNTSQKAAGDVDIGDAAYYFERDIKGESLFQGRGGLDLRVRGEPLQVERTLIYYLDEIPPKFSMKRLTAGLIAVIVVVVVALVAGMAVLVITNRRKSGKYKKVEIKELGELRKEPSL

T2: cynomolgus Trop-2-His protein (cynomolgus, UniProt P09758 27-274 (human entry))
T2 construct: also called cynmolgus Trop-His; Kactus Cat #TRP-CM121; not shown: His tag
T2 chain: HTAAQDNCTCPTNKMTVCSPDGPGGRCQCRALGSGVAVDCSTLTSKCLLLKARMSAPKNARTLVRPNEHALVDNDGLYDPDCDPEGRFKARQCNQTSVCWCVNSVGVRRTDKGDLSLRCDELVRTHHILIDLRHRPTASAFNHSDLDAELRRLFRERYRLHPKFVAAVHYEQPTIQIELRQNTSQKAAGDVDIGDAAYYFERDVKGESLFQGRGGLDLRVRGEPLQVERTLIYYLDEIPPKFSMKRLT

T3: human Trop-2-His protein (human, UniProt P09758 27-274)
T3 construct: extracellular domain; Assay paragraphs say only 'Trop-2-His'; also called hTrop-2; Kactus Cat #TRP-HM121; not shown: His tag
T3 sequence (looked up): T2 chain with V36M, N67S, S139G, V204I

B1: 63H3 (antibody, V domains shown)
VH: QEQLKESGGGLVQPGGSLKLSCKASGFDFNSYGVSWVRQAPGKGLEWIAYIYPAFHNAYYANWVNGRFTISSDNAQNTVDLQLNSLTAADTATYFCARDAGGTDYNYNLWGPGTLVTVSS
VL: DVVMTQTPASVEVAVGGTVTLKCQASEDIESYSAWYQQKPGQPPNLLIYEASKLASGVSSRFSGSGYGTEFTLTISGVECADAATYYCQQALTIGNVDNPFGGGSEVVVR
notes: Rabbit-derived clone; LEM construct: VH + rabbit IgG CH1 + human IgG1 CH2-CH3
B2: 66A1 (antibody, V domains shown)
VH: B1 VH with S31N, A58T, N62S, D73H, V79L, D80Y, N106A
VL: DVVMTQTPASVEAAVGGTVSINCQASEDIESYLAWYQQKPGQPPKLLIYKASTLASGVSSRFKGSGSGKQFTLTISGVECADAATYYCQQVLTIGNVDNPFGGGSEVVVK
notes: as for B1
B3: 65D5 (antibody, V domains shown)
VH: B1 VH with S31A, A58T, N62T, D73H, V79L, D80Y, S85T, G102T, Y107F
VL: DIVMTQTPASVSEPVGGTVTIKCQASQSISSYLAWYQQKPGQPPKLLIYEATKLTSGVSSRFSGSGYGTEFTLTISGVECADAATYYCQQALTVGDVDNPFGGGSEVVVK
notes: as for B1

Each binder was assayed against T1, human Trop-2 expressed on cell surface (assay: flow cytometry, MDA-MB-231-GFP cells).
Summary of the method: (§1)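 Cells at 10⁶/ml in DPBS/1% FBS were incubated on ice for 1 h with antibodies in 1:3 serial dilutions from 15 μg/mL. Detection used PE anti-human Fc (1:400, 30 min on ice) with 7-AAD viability staining, read by flow cytometry. EC₅₀ from binding curves; anti-HEL hIgG1 isotype control.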

EC50 [nM]	Binder
0.02	B1
0.01	B2
0.01	B3

Each binder was assayed against T1, human Trop-2 expressed on cell surface (assay: cell-based or functional assay).

Internalization %, MDA-MB-231, 0.25 µg/ml, 2 h [%]	Internalization %, MDA-MB-231, 0.25 µg/ml, 4 h [%]	Internalization %, MDA-MB-231, 0.5 µg/ml, 2 h [%]	Internalization %, MDA-MB-231, 0.5 µg/ml, 4 h [%]	Internalization %, MDA-MB-231, 1 µg/ml, 2 h [%]	Internalization %, MDA-MB-231, 1 µg/ml, 4 h [%]	Internalization %, MDA-MB-231, 2 µg/ml, 2 h [%]	Internalization %, MDA-MB-231, 2 µg/ml, 4 h [%]	Binder
40	48	39	45	38	49	37	39	B1
45	51	46	50	39	49	36	43	B2
34	51	43	51	37	48	31	41	B3

Target: T2, cynomolgus Trop-2-His protein
Test: ELISA, coated Trop-2 protein
Summary of the method: (§2)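 Purified antibodies were checked for binding to human or cynomolgus Trop-2-His protein by ELISA. Maxisorp plates were coated overnight at 4° C with 0.5 μg/ml protein, blocked with PBST/3% BSA, and incubated with serially diluted antibodies. Binding was detected with HRP-conjugated anti-hIgG and TMB, read at 450 nm, and EC₅₀ values were calculated in Graphpad Prism.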

EC50 [nM]	Binder
0.033	B1
0.014	B2
0.015	B3

These binders were tested against T3, human Trop-2-His protein (assay: ELISA, coated Trop-2 protein).
Summary of the method: as §2

EC50 [nM]	Binder
0.029	B1
0.013	B2
0.019	B3

Target: T1, human Trop-2 expressed on cell surface
Test: cell-based or functional assay
Remark: another data set of the same source

EC50 of ADCC (NFAT-CD16 reporter), MCF-7 [nM]	EC50 of ADCC (NFAT-CD16 reporter), MDA-MB-231 [nM]	Binder
0.17	0.03	B1
0.22	0.06	B2
0.32	0.05	B3

Target: T1, human Trop-2 expressed on cell surface
Test: cell-based or functional assay
Remark: another data set of the same source

Internalization %, MCF-7, 0.25 µg/ml, 1 h [%]	Internalization %, MCF-7, 0.25 µg/ml, 2 h [%]	Internalization %, MCF-7, 0.25 µg/ml, 4 h [%]	Internalization %, MCF-7, 0.5 µg/ml, 1 h [%]	Internalization %, MCF-7, 0.5 µg/ml, 2 h [%]	Internalization %, MCF-7, 0.5 µg/ml, 4 h [%]	Binder
15	26	36	23	37	44	B1
20	36	45	33	45	53	B2
18	36	41	23	41	42	B3

What follows are binders tested against T3, human Trop-2-His protein (assay: BLI (Gator Plus), purified Ab on HFC probe).
Summary of the method: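 Antibody at 1 μg/ml in Q buffer captured on HFC biosensor; human Trop-2-His analyte in 1:4 serial dilutions from 1 μg/ml. Association and dissociation tracked by bio-layer interferometry with blank reference subtraction; affinity derived from kinetic fitting.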

Kd [nM]	koff [s⁻¹]	kon [M⁻¹ s⁻¹]	Binder
0.03	2.5e-05	766000	B1
0.25	0.000193	788000	B2
1.1	0.000898	819000	B3

What follows are binders tested against T1, human Trop-2 expressed on cell surface (assay: flow cytometry, MCF-7 cells).
Summary of the method: as §1

EC50 [nM]	Binder
0.6	B1
0.6	B2
0.8	B3
